B1: TNF receptor-associated factor 2 (Homo sapiens), Q12933 (parent)
chain: MAAASVTPPGSLELLQPGFSKTLLGTKLEAKYLCSACRNVLRRPFQAQCGHRYCSFCLASILSSGPQNCAACVHEGIYEEGISILESSSAFPDNAARREVESLPAVCPSDGCTWKGTLKEYESCHEGRCPLMLTECPACKGLVRLGEKERHLEHECPERSLSCRHCRAPCCGADVKAHHEVCPKFPLTCDGCGKKKIPREKFQDHVKTCGKCRVPCRFHAIGCLETVEGEKQQEHEVQWLREHLAMLLSSVLEAKPLLGDQSHAGSELLQRCESLEKKTATFENIVCVLNREVERVAMTAEACSRQHRLDQDKIEALSSKVQQLERSIGLKDLAMADLEQKVLEMEASTYDGVFIWKISDFARKRQEAVAGRIPAIFSPAFYTSRYGYKMCLRIYLNGDGTGRGTHLSLFFVVMKGPNDALLRWPFNQKVTLMLLDQNNREHVIDAFRPDVTSSSFQRPVNDMNIASGCPLFCPVSKMEAKNSYVRDDAIFIKAIVDLTGL

The values below come from IntAct's records for PubMed 31515488.

Variants of B1 are the subject of this assay. To be noted: with traf1_human TRAF1, Q13077.
Sequence of traf1_human TRAF1, Q13077 (Q13077 whole entry): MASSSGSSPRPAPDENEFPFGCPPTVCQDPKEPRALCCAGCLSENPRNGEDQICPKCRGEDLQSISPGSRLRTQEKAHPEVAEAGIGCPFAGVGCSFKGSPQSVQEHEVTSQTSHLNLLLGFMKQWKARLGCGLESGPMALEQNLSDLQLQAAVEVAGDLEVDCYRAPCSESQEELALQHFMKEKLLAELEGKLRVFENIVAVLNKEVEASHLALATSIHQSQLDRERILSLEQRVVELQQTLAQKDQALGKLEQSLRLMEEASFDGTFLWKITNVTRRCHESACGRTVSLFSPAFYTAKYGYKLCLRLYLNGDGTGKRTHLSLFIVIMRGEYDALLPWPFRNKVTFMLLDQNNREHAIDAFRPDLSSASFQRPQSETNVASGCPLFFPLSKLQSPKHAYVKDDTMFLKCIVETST
With MAAASVTPPGSLELLQPGFSKTLLGTKLEAKYLCSACRNVLRRPFQAQCGHRYCSFCLASILSSGPQNCAACVHEGIYEEGISILESSSAFPDNAARREVESLPAVCPSDGCTWKGTLKEYESCHEGRCPLMLTECPACKGLVRLGEKERHLEHECPERSLSCRHCRAPCCGADVKAHHEVCPKFPLTCDGCGKKKIPREKFQDHVKTCGKCRVPCRFHAIGCLETVEGEKQQEHEVQWLREHLAMLLSSVLEAKPLLGDQSHAGSELLQRCESLQKKTATFENIVCVLNREVERVAMTAEACSRQHRLDQDKIEALSSKVQQLERSIGLKDLAMADLEQKVLEMEASTYDGVFIWKISDFARKRQEAVAGRIPAIFSPAFYTSRYGYKMCLRIYLNGDGTGRGTHLSLFFVVMKGPNDALLRWPFNQKVTLMLLDQNNREHVIDAFRPDVTSSSFQRPVNDMNIASGCPLFCPVSKMEAKNSYVRDDAIFIKAIVDLTGL [E276Q], the “effect of a mutation on the interaction” value is listed as “with no effect”. Turning to MAAASVTPPGSLELLQPGFSKTLLGTKLEAKYLCSACRNVLRRPFQAQCGHRYCSFCLASILSSGPQNCAACVHEGIYEEGISILESSSAFPDNAARREVESLPAVCPSDGCTWKGTLKEYESCHEGRCPLMLAECPACKGLVRLGEKERHLEHECPERSLSCRHCRAPCCGADVKAHHEVCPKFPLTCDGCGKKKIPREKFQDHVKTCGKCRVPCRFHAIGCLETVEGEKQQEHEVQWLREHLAMLLSSVLEAKPLLGDQSHAGSELLQRCESLEKKTATFENIVCVLNREVERVAMTAEACSRQHRLDQDKIEALSSKVQQLERSIGLKDLAMADLEQKVLEMEASTYDGVFIWKISDFARKRQEAVAGRIPAIFSPAFYTSRYGYKMCLRIYLNGDGTGRGTHLSLFFVVMKGPNDALLRWPFNQKVTLMLLDQNNREHVIDAFRPDVTSSSFQRPVNDMNIASGCPLFCPVSKMEAKNSYVRDDAIFIKAIVDLTGL [T134A], the “effect of a mutation on the interaction” value is “with no effect”. As to MAAASVTPPGSLELLQPGFSKTLLGTKLEAKYLCSACRNVLRRPFQAQCGHRYCSFCLASILSSGPQNCAACVHEGIYEEGISILESSSAFPDNAARREVESLPAVCPSDGCTWKGTLKEYESCHEGRCPLMLTECPACKGLVRLGEKERHLEHECPERSLSCRHCRAPCCGADVKAHHEVCPKFPLTCDGCGKKKIPREKFQDHVKTCGKCRVPCRFHAIGCLETVEGEKQQEHEVQWLREHLAMLLSSVLEAKPLLGDQSHAGSELLQRCESLEKKTATFENIVCVLNREVERVAMTAEACSRQHRLDQDKIEALSSKVQQLERSIGLKDLAMADLEQKVLEMEASTYDGVFIWKISDFARKRQEAVAGRIPAIFSPAFYTSRYGYKMCLRIYLNGDGTGRGTHLSLFFVVMKGPNDALLRWPFNQKVTLMLLDQNNREHVIDAFRPDVTSSSFQRPVNDMNIASGCPLFCPISKMEAKNSYVRDDAIFIKAIVDLTGL [V475I], the “effect of a mutation on the interaction” value is on record as “with no effect”.

Take MAAASVTPPGSLELLQPGFSKTLLGTKLEAKYLCSACRNVLRRPFQAQCGHRYCSFCLASILSSGPQNCAACVHEGIYEEGISILESSSAFPDNAARREVESLPAVCPSDGCTWKGTLKEYESCHEGRCPLMLTECPACKGLVRLGEKERHLEHECPERSLSCRHCRAPCCGADVKAHHEVCPKFPLTCDGCGKKKIPREKFQDHVKTCGKCRVPCRFHAIGCLETVEGEKQQEHEVQWLREHLAMLLSSVLEAKPLLGDQSHAGSELLQRCESLEKTTATFENIVCVLNREVERVAMTAEACSRQHRLDQDKIEALSSKVQQLERSIGLKDLAMADLEQKVLEMEASTYDGVFIWKISDFARKRQEAVAGRIPAIFSPAFYTSRYGYKMCLRIYLNGDGTGRGTHLSLFFVVMKGPNDALLRWPFNQKVTLMLLDQNNREHVIDAFRPDVTSSSFQRPVNDMNIASGCPLFCPVSKMEAKNSYVRDDAIFIKAIVDLTGL [K278T]: the “effect of a mutation on the interaction” value is “with no effect”.

As for MAAASVTPPGSLELLQPGFSKTLLGTKLEAKYLCSACRNVLRRPFQAQCGHRYCSFCLASILSSGPQNCAACVHEGIYEEGISILESSSAFPDNAARREVESLPAVCPSDGCTWKGTLKEYESCHEGRCPLMLTECPACKGLVRLGEKERHLEHECPERSLSCRHCRAPCCGADVKAHHEVCPKFPLTCDGCGKKKIPREKFQDHVKTCGKCRVPCRFHAIGCLETVEGEKQQEHEVQWLREHLAMLLSSVLEAKPLLGDQSHAGSELLQRCESLEKKTATFENIVCVLNREVERVAMTAEACSRQHRLDQDKIEALSSKVQQLERSIGLKDLAMADLEQKVLEMEASTYDGVFIWKISDFARKRQEAVAGRIPAIFSPAFYTSRYGYKMCLRIYLNGDGTGRGTHLSLFFVVMKGPNDALLRWPFNQKVTLMLLDQNNREHVIDAFRPDVTSSSFQRPVNNMNIASGCPLFCPVSKMEAKNSYVRDDAIFIKAIVDLTGL [D462N], the “effect of a mutation on the interaction” value is reported as “with no effect”. Turning to MAAASVTPPGSLELLQPGFSKTLLGTKLEAKYLCSACRNVLRRPFQAQCGHRYCSFCLASILSSGPQNCAACVHEGIYEEGISILESSSAFPDNAARREVESLPAVCPSDGCTWKGTLKEYESCHEGRCPLMLTECPACKGLVRLGEKERHLEHECPERSLSCRHCRAPCCGADVKAHHEVCPKFPLTCDGCGKKKIPREKFQDHVKTCGKCRVPCRFHAIGCLETVEGEKQQEHEVQWLREHLAMLLSSVLEAKPLLGDQSHTGSELLQRCESLEKKTATFENIVCVLNREVERVAMTAEACSRQHRLDQDKIEALSSKVQQLERSIGLKDLAMADLEQKVLEMEASTYDGVFIWKISDFARKRQEAVAGRIPAIFSPAFYTSRYGYKMCLRIYLNGDGTGRGTHLSLFFVVMKGPNDALLRWPFNQKVTLMLLDQNNREHVIDAFRPDVTSSSFQRPVNDMNIASGCPLFCPVSKMEAKNSYVRDDAIFIKAIVDLTGL [A264T], the “effect of a mutation on the interaction” value was “with no effect”.

In the case of MAAASVTPPGSLELLQPGFSKTLLGTKLEAKYLCSACRNVLRRPFQAQCGHRYCSFCLASILSSGPQNCAACVHEGIYEEGISILESSSAFPDNAARREVESLPAVCPSDGCTWKGTLKEYESCHEGRCPLMLTECPACKGLVRLGEKERHLEHECPERSLSCRHCRAPCCGADVKAHHEVCPKFPLTCDGCGKKKIPREKFQDHIKTCGKCRVPCRFHAIGCLETVEGEKQQEHEVQWLREHLAMLLSSVLEAKPLLGDQSHAGSELLQRCESLEKKTATFENIVCVLNREVERVAMTAEACSRQHRLDQDKIEALSSKVQQLERSIGLKDLAMADLEQKVLEMEASTYDGVFIWKISDFARKRQEAVAGRIPAIFSPAFYTSRYGYKMCLRIYLNGDGTGRGTHLSLFFVVMKGPNDALLRWPFNQKVTLMLLDQNNREHVIDAFRPDVTSSSFQRPVNDMNIASGCPLFCPVSKMEAKNSYVRDDAIFIKAIVDLTGL [V206I], the “effect of a mutation on the interaction” value is “with no effect”.
